Data as given in publication PMC3511584.

Tests used:
[1] = molecular target: circularly permuted RoCBM21 (CP90) (Rhizopus oryzae); experiment: AUC; sedimentation velocity, no ligand, protein around 1.0 mg/ml, 40,000 rpm, 25°C, absorbance at 280 nm, SEDFIT
[2] = molecular target: circularly permuted RoCBM21 (CP90) (Rhizopus oryzae); experiment: AUC; data not shown: apoCP90 at pH 2.5, 3, 4, 5, 6, 7, 8, 9 and 10, no ligand

circularly permuted RoCBM21 (CP90) (domain or fragment)
stoichiometry N [1]: 2 | stoichiometry N [2]: 2
